Results: doi:10.1101/798769

Biological target: NANP 5.5-mer peptide, NP(NANP)5 (Plasmodium falciparum)
Assay: SPR

mAb CIS43 (recombinant human IgG1, kappa) (antibody)
fold lower affinity (reference not clear: its own NPDP affinity or mAb 4493): 100 fold
